Data set [1] concerns perfused Langendorff rat heart. Kind of data set: Equilibrium binding to perfused Langendorff rat heart. The settings on record: for heart uptake relative to GdDTPA: perfused rat heart; for Heart: 10 minutes recirculating perfusion. On the procedure: After deep anesthesia with pentobarbital (80 mg/kg ip), the chest cavity of a male Sprague Dawley rat (300 g) was opened, retracted and the heart was removed immediately and placed in an ice-cold normal Krebs-Henseleit (K-H) solution (NaCl, 118 mM; KCl, 4.7 mM; CaCl2, 2.5 mM; MgSO4, 1.2 mM; KH2PO4, 1.2 mM; NaHCO3, 25 mM; glucose, 5.5 mM). A K-H buffer filled 20 Gauge needle was inserted into the apex of the heart penetrating into the bottom of the chamber. This was attached to a pressure transducer used to record and monitor heart function. Perfusion pressure (60 mmHg) was monitored using a second transducer. The heart was perfused at a constant flow rate of 10-12 mL/min with 37° C. Krebs-Henseleit buffer saturated with a mixture of 95% O2 and 5% CO2 gas. The heart was paced at 300 beats/min.
Two peptide test articles, a high collagen binding peptide (SEQ ID NO: 144) and a low collagen binding peptide (SEQ ID NO: 173), are compared to GdDTPA. The appropriate test article was added to the K-H buffer solution to a total concentration of either 3 or 30 μM. Also added to the K-H buffer was a radiotracer analog of each peptide or GdDTPA. For the peptides, the radiotracer was an aliquot of the appropriate I-125 labeled peptide derivative (see Example 5 for protocol). For GdDTPA, the tracer added was Tc-99m labeled DTPA. The amount of radioactivity added to the buffer solution was 1-5 μCi.
The heart was perfused for a period of 10 minutes and the perfusion solution was recycled through the heart. The total volume of K-H buffer used was 50-60 mL. After 10 min, the heart was removed from the apparatus and any connective tissue was removed. The heart was opened, fluid in the chambers drained, and the interior blotted dry with filter paper. The heart was then weighed and the radioactivity in the heart measured with a Packard Cobra 5003 Gamma Scintillation counter. An aliquot of the K-H buffer was also weighed and counted. Studies were performed at least in duplicate.
The dual peptide gadolinium tetramer (Compound ID 803) was compared to GdDTPA. Compound ID 803 and GdDTPA were added to the K-H buffer solution to a total concentration of 3 μM. Also added to the K-H buffer was a radiotracer analog of Compound ID 803 or GdDTPA. For Compound ID 803, the radiotracer was an aliquot of the In-111 labeled compound. For GdDTPA, the tracer added was Tc-99m labeled DTPA. The amount of radioactivity added to the buffer solution was 1-5 μCi.

For data set [2], the system named is perfused Langendorff rat heart. Kind of data set: Washout kinetics from perfused Langendorff rat heart. Particulars: for fraction of compound present at 0 minutes post infusion that remains at 10 minutes: 10 minutes after infusion. As for the experimental part:
A K-H buffer filled 20 Gauge needle was inserted into the apex of the heart penetrating into the bottom of the chamber. This was attached to a pressure transducer used to record and monitor heart function. Perfusion pressure (60 mmHg) was monitored using a second transducer. The heart was perfused at a constant flow rate of 10-12 mL/min with 37° C. […] The heart was paced at 300 beats/min.
A Langendorff rat heart preparation was perfused with K-H buffer at a rate of 10-12 mL/min. […] After the infusion was finished, the heart was either removed or perfusion was allowed to continue for an additional 10 minutes and then the heart was removed. The perfusion buffer was not recirculated through the heart. After removal of any connective tissue, the heart was opened, fluid in the chambers drained, and the interior blotted dry with filter paper. […] An aliquot of the K-H buffer was also weighed and counted. Concentration estimates were decay corrected. Studies were performed at least in duplicate.

Data set [3] deals with T1, dried rat collagen type I (Rattus norvegicus, UniProt P02454+P02466).
T1 construct: Rat collagen (acid soluble, type I, rat tail, Upstate USA, Inc, cat# 08-115); purchased Upstate USA, Inc 08-115; host or cells: rat tail (tissue extract)
T1 sequence (P02454 152-1207 limits assumed): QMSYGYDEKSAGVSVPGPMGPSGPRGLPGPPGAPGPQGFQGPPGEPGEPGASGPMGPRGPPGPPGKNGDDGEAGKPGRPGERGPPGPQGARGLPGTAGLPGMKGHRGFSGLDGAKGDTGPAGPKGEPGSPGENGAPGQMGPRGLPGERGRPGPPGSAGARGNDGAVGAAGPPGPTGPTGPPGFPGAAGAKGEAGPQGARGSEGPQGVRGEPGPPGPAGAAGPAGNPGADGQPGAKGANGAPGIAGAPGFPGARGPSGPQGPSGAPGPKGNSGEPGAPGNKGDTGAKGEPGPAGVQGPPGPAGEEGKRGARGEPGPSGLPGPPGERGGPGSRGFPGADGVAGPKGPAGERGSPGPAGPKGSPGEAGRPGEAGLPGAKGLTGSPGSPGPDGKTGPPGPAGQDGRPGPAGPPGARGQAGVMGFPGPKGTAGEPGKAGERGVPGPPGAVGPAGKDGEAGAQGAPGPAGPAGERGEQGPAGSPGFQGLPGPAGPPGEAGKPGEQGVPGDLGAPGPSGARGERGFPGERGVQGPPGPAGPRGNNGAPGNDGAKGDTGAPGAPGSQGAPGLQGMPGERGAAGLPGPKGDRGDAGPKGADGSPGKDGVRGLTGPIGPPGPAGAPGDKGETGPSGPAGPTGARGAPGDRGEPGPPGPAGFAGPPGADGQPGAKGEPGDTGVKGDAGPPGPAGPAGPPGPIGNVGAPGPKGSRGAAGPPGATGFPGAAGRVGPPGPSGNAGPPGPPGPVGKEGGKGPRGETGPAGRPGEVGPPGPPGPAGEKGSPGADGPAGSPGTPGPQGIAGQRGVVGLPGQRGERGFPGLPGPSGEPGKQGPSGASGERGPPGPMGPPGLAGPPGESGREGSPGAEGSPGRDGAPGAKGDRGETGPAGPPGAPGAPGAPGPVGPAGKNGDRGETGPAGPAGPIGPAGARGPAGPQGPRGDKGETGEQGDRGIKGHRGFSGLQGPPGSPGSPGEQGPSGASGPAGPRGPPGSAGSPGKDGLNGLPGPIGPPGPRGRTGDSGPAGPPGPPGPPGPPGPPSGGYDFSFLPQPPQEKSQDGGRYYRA
T1 sequence (P02466 86-1125 limits assumed): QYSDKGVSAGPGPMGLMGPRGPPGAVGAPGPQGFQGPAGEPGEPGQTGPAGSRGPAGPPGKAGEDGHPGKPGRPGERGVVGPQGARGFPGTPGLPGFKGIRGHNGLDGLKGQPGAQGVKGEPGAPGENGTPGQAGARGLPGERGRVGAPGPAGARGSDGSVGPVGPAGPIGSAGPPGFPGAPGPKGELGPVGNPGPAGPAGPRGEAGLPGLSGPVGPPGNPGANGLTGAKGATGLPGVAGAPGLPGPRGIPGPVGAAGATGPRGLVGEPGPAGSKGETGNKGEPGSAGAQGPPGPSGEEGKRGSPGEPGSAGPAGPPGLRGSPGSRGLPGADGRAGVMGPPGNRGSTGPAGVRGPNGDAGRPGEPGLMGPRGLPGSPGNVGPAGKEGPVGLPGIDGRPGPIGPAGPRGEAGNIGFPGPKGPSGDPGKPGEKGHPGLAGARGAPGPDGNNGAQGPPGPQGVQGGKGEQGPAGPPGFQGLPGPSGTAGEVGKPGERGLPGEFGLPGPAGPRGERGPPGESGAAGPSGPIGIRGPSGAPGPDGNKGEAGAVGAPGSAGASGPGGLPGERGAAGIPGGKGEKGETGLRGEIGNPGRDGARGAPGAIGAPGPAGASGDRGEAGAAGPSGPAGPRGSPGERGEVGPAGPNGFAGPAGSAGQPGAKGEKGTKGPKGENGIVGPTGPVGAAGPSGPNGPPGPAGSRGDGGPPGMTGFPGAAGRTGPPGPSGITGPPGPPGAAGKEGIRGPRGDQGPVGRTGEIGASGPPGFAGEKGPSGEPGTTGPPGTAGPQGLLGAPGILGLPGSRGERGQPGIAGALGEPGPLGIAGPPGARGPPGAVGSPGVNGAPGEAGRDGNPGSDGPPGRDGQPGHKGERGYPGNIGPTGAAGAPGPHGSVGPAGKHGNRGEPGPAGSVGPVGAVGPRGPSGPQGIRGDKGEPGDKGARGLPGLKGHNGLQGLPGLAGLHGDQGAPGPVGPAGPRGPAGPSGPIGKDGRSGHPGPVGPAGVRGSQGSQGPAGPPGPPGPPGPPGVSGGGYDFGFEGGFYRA
Kind of data set: Dried collagen assay (DCA), rat collagen. The settings on record: for % Collagen Binding, Dried Rat: 5 μM peptide in PBS pH 7.4, 2 hours at room temperature, percent bound. Format: binding. On the procedure: Peptides identified using the phage-display protocol were screened using dried collagen assays (DCA) as described in A.-D. below.
For the final assay, a 1:10 volume of 10×PBS (100 mM NaH2PO4, 1.5 M NaCl pH 7.4) is added to the collagen solution (final 1×PBS) and incubated at 37° C. for 2 hours.
An additional 90 μL is reserved in a HPLC glass vial as a measure of the total concentration.

Data set [4] addresses T2, dried human collagen type I (Homo sapiens, UniProt P02452+P08123).
T2 construct: Acid soluble human collagen extracted from placenta; purchased Sigma C7774; host or cells: human placenta (tissue extract)
Kind of data set: Dried collagen assay (DCA), human collagen. Particulars: 5 μM peptide in PBS pH 7.4, 2 hours at room temperature; percent bound. Format: binding.
Procedure: Acid soluble human collagen extracted from placenta (Sigma, cat# C7774, lot# 083K375) is dissolved in 15 mM HCl (3.5 mg/ml) by vortexing and gently shaking for 3-4 hours at 4° C. The acid soluble collagen is dissolved against PBS, pH 7.4 (three buffer exchanges are used). […] Percent gelation (fibril formation) of the collagen is determined by incubating 10 μM collagen (3.3 mg/ml) at 37° C. for 6 hours.

The nature of data set [5]: Biodistribution (heart, blood) after tail vein injection, radiotracer counting. Format: in vivo, Sprague-Dawley rats. Particulars: for Blood (% ID/g) / Heart (% ID/g): rat, 0.5 μmol/kg tail vein. As for the experimental part: Concentration estimates were decay corrected. Studies were performed at least in duplicate.

The results in this text go back to patent US20080058636A1, “METHODS OF MYOCARDIAL IMAGING” (Epix Pharmaceuticals, Inc., priority 2005, published 2008).

Bridge positions count the residues as written; N and C are the ends. Square brackets hold non-standard residues; d marks the D form. Ends that are not written are not given here. bb‑DTPA gadolinium tetramer = not defined here

T2 sequence (P02452 162-1218 limits assumed): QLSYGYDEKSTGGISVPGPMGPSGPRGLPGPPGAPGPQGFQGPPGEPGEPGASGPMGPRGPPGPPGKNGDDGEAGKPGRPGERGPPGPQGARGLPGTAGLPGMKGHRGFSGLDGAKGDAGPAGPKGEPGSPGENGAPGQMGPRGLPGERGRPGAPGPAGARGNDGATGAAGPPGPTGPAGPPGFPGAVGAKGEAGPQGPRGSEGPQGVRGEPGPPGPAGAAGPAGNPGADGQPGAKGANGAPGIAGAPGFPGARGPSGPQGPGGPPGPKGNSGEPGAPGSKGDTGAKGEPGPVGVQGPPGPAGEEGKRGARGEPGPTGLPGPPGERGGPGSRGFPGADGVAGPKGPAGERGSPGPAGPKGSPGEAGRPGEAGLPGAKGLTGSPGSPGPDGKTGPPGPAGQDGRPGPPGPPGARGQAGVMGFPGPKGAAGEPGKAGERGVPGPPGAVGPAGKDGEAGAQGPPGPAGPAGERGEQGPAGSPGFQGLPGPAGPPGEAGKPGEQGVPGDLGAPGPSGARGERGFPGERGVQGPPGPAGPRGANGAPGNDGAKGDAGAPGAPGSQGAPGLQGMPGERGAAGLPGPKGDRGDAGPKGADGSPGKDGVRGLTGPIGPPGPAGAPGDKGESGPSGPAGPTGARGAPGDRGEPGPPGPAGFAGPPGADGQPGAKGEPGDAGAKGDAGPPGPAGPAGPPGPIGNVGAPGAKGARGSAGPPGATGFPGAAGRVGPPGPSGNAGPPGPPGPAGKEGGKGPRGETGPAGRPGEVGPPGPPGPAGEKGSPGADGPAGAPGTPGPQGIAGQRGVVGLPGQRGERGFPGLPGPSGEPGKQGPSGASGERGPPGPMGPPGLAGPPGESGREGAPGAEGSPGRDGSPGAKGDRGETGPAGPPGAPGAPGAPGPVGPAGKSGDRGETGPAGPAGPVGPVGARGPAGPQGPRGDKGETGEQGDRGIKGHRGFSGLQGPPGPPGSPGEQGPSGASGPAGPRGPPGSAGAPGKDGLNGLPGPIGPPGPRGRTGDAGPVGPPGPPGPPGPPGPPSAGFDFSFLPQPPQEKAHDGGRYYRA
T2 sequence (P08123 80-1119 limits assumed): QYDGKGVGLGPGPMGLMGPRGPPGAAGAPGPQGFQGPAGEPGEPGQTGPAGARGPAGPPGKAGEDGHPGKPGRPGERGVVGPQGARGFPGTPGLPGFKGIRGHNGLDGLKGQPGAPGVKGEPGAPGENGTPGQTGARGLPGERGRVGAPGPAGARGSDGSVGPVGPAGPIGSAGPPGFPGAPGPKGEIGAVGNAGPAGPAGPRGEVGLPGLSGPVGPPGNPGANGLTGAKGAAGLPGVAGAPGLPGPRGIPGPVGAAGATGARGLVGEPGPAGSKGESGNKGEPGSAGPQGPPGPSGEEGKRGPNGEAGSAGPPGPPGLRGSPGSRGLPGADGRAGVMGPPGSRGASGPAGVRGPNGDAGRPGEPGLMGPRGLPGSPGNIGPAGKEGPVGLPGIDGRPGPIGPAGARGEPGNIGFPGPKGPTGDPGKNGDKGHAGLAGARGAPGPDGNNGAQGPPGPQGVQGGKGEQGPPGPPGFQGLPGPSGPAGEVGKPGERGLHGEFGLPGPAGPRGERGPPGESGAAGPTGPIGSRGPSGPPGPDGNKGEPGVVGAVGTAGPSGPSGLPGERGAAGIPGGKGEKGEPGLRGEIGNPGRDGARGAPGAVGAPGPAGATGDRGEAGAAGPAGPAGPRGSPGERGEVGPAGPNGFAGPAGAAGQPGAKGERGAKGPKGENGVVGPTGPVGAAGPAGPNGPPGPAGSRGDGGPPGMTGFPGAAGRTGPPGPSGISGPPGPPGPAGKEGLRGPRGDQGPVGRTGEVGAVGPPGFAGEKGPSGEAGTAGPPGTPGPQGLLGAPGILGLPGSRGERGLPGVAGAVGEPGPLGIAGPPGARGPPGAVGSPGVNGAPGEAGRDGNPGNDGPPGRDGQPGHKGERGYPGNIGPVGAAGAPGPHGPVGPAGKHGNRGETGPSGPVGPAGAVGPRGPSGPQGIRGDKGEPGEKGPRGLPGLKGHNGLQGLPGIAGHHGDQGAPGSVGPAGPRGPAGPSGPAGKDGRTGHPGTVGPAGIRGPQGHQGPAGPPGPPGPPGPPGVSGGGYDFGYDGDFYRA

Take “Compound ID 803: dual peptide, gadolinium tetramer; bb-DTPA tetramer diacid coupled to N-terminus of SEQ ID NO. 264 peptide ({bb‑DTPA gadolinium tetramer}-GQWHCTTSFPHHYCLYG; disulfide 5-14 (inferred); reading uncertain; also: Gd complex) [dual peptide, gadolinium tetramer; 264 peptide]”: in data set [1], the “heart uptake relative to GdDTPA” value is recorded as “about 7 times”. The “fraction of compound present at 0 minutes post infusion that remains at 10 minutes” value in data set [2] amounted to 54%.

As to 142 (QWTCSADEYTWHCNYE) [compound 142], the “% Collagen Binding, Dried Rat” value in data set [3] amounted to 6%.

As to “137 (YHACYQAGCWAW; disulfide 4-9 (inferred)) [compound 137]”, in data set [3], the “% Collagen Binding, Dried Rat” value is given as 7%.

As for 173 (QWTCSGDEYTWHCNYE) [compound 173], the “Dried Human Collagen Binding” value in data set [4] is listed as 5%. Also, the “% Collagen Binding, Dried Rat” value in data set [3] was 4%.

As to 166 (QWTCSGDEYTWHCNYE) [compound 166], the “Dried Human Collagen Binding” value in data set [4] came out at 2%. The “% Collagen Binding, Dried Rat” value in data set [3] was 3%.

Turning to 165 (QWTCSGDEYTWHCNYE) [compound 165], the “Dried Human Collagen Binding” value in data set [4] turned out to be 2%. Further, the “% Collagen Binding, Dried Rat” value in data set [3] is given as 4%.

In the case of “130 (WWACQKGRHDWEKCRWL; disulfide 4-14 (inferred)) [compound 130]”, the “Dried Human Collagen Binding” value in data set [4] stood at 32%.

In the case of “39 (GWQCSGDASVWNCDWI; disulfide 4-13 (inferred)) [compound 39]”, the “Dried Human Collagen Binding” value in data set [4] was 6%.

As for 168 (QWTCSGDEYTWHCNYE) [compound 168], in data set [4], the “Dried Human Collagen Binding” value was 3%. In addition, in data set [3], the “% Collagen Binding, Dried Rat” value turned out to be 2%.

In the case of “38 (GWSCHGDAADWPCQWS; disulfide 4-13 (inferred)) [compound 38]”, the “Dried Human Collagen Binding” value in data set [4] stood at 6%.

Take 3 (PWWCHEMPSMCFGF) [compound 3]: the “Dried Human Collagen Binding” value in data set [4] worked out at 2%.

On to “113 (FSECVWVNAYQCEYF; disulfide 4-12 (inferred)) [compound 113]”, for which, in data set [4], the “Dried Human Collagen Binding” value was found to be 3%.

In the case of 174 (QWTCSGDEYTWHCNYE) [compound 174], the “Dried Human Collagen Binding” value in data set [4] is 5%.

Consider 171 (QWTCSGDEYTWHCNYE) [compound 171], for which the “% Collagen Binding, Dried Rat” value in data set [3] was determined as 6%.

In the case of 2 (WGWCEWAQNNCWNY) [compound 2], the “Dried Human Collagen Binding” value in data set [4] is given as 14%.

176 (QWTCSGDEYTWHCNYE) [compound 176]: the “Dried Human Collagen Binding” value in data set [4] is recorded as 2%. For the same substance, the “% Collagen Binding, Dried Rat” value in data set [3] came out at 2%.

Turning to 175 (QWTCSGDEYTWHCNYE) [compound 175], the “Dried Human Collagen Binding” value in data set [4] is given as 2%. In addition, the “% Collagen Binding, Dried Rat” value in data set [3] was found to be 2%.

Consider 147 (QWTCSGDEYTAHCNYE) [compound 147], for which, in data set [4], the “Dried Human Collagen Binding” value is 5%.

In the case of 163 (YHACYQAGCWIW) [compound 163], the “% Collagen Binding, Dried Rat” value in data set [3] was determined as 53%.

Turning to “Q W T C S G D E Y T w H C N Y E (QWTCSGDEYT[dW]HCNYE; disulfide 4-13 (inferred)) [SEQ ID NO. 173]”, in data set [1] (buffer 3.0 μM), the “Heart:Buffer” value amounted to 0.37 ± 0.08 and the “Heart” value was determined as 1.1 ± 0.2 nmol/g. Moreover, the “specific heart uptake (in words)” value in data set [1] (heart concentrations compared with GdDTPA) is given as “no specific uptake”.

For the substance 167 (QWTCSGDEYTWHCNYE) [compound 167], in data set [4], the “Dried Human Collagen Binding” value is 4%.

With 74 (QWHCTTRFPHHYCLYG) [compound 74], in data set [4], the “Dried Human Collagen Binding” value is 67-69%.

For “112 (AKACSVHDEFGCLIS; disulfide 4-12 (inferred)) [compound 112]”, the “Dried Human Collagen Binding” value in data set [4] worked out at 9%.

Take “65 (KWECVHTKGEWYCETK; disulfide 4-13 (inferred)) [compound 65]”: the “Dried Human Collagen Binding” value in data set [4] is recorded as 7%.

Regarding 169 (QWTCSGDEYTWHCNYE) [compound 169], the “% Collagen Binding, Dried Rat” value in data set [3] is 4%.

As for 190 (GQWTCSGDEYTWHCNYE) [compound 190], the “% Binding Collagen I Rat” value in data set [3] (chelate conjugates) is 5%.

Regarding “36 (SWSCGGDHNAWKCQYS; disulfide 4-13 (inferred)) [compound 36]”, the “Dried Human Collagen Binding” value in data set [4] is 7%.

In the case of “Q W T C S G D A Y T W H C N Y E (QWTCSGDAYTWHCNYE) [SEQ ID NO. 144]”, the “Heart:Blood” value amounted to 0.38 in data set [5] (1 min post injection) and 1.08 in data set [5] (5 min post injection). The results for the “Blood (% ID/g)” value in data set [5] (1 min post injection) and in data set [5] (5 min post injection) were 1.8 ± 0.2 % ID/g and 0.46 ± 0.07 % ID/g, respectively. Besides, the “Heart (% ID/g)” value in data set [5] (1 min post injection) worked out at 0.68 ± 0.01 % ID/g; in data set [5] (5 min post injection), 0.50 ± 0.16 % ID/g; in data set [2] (0 min after infusion), 4.6 ± 1.1 % ID/g; in data set [2] (10 min after infusion, non-recirculated buffer) it was 3.1 ± 1.6 % ID/g. Besides, the “Heart:Buffer” value in data set [1] (buffer 3.0 μM) was found to be 3.3 ± 0.8; in data set [1] (buffer 30 μM) it was 4.0 ± 1.7. The figures for the “Heart” value in data set [1] (buffer 3.0 μM) and in data set [1] (buffer 30 μM) were 9.8 ± 2.3 nmol/g and 120 ± 50 nmol/g, respectively. Moreover, the “heart uptake relative to GdDTPA” value in data set [1] was “about 10 times”. Moreover, the “fraction of compound present at 0 minutes post infusion that remains at 10 minutes” value in data set [2] was 68%.

On to 159 (YHACYQAGCWIW) [compound 159], for which, in data set [4], the “Dried Human Collagen Binding” value is on record as 7%.

Take “37 (LWNCHGTDANWKCVLN; disulfide 4-13 (inferred)) [compound 37]”: the “Dried Human Collagen Binding” value in data set [4] was 7%.

As to “13 (QWTCSGDEYTWHCNYE; disulfide 4-13 (inferred)) [compound 13]”, in data set [4], the “Dried Human Collagen Binding” value was 78-85%.
